This assay has as its target env polypeptide of the LR1-C1 isolate (HIV-1 (variant of clade B primary isolate AC10)). Kind of assay: virion capture assay, titration of virions on 4E10-coated plates, p24 ELISA. Background: ELISA stands for enzyme-linked immunosorbent assay.

For one substance, fold increase in affinity against the AC10 wild-type variant results are on record in US20140037667A1.

As for 4E10 antibody, the fold increase in affinity against the AC10 wild-type variant was 4 fold.
